These results are taken from patent publication US20250135039A1, “INHIBITOR-RESISTANT MGMT MODIFICATIONS AND MODIFICATION OF MGMT-ENCODING NUCLEIC ACIDS” (Ensoma, Inc., priority 2022, published 2025).

Substitutions are numbered along the chain they refer to. Numbers in names are those of the source.

In this assay the test system is U251 human glioblastoma cell line. The assay is described as follows: in vitro FM-HCR assay of MGMT activity (mPlum O^6MeG reporter plasmid). The format is cell-based. Conditions: for Reporter expression (%) mean, O^6BG: 100 μM O^6BG; for Reporter expression (%) mean, O^6BG / Reporter expression (%) mean, DMSO: U251 cells, flow cytometry 24 h after transfection, damaged/undamaged reporter, inversely related to MGMT activity; for Reporter expression (%) mean, DMSO: 0.1% DMSO; for MGMT activity (a.u.) DMSO / MGMT activity (% of WT) DMSO: DMSO condition; for MGMT activity (a.u.) DMSO / MGMT activity (a.u.) O^6BG: determined from percent reporter expression; for MGMT activity (% of WT) DMSO / MGMT activity (% of WT) O^6BG: relative to wild-type MGMT in same condition; for Relative MGMT activity (%): MGMT activity (a.u.) in O^6BG divided by DMSO x 100, higher values indicate resistance; for MGMT activity (a.u.) O^6BG / MGMT activity (% of WT) O^6BG: O^6BG condition; for Ratio percent reporter expression (O^6BG/DMSO): lower values indicate resistance to O^6BG; for O^6BG resistance relative to WT (%): percentage difference in relative MGMT activity between variant and wild-type MGMT. The procedure, abridged: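 U251 cells transfected with MGMT variant plasmid, mPlum O^6MeG reporter (or undamaged mPlum plasmid) and BFP control, in 100 μM O^6BG or 0.1% DMSO; flow cytometry at 24 h. mPlum count×intensity normalized to BFP; percent reporter expression = damaged/undamaged ×100, inversely related to MGMT activity.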
(Flow cytometry measures light scatter and fluorescence of single cells or particles in a stream.)

B1: Y158M: MGMT polypeptide with mutation Y158M (protein)
chain: MDKDCEMKRTTLDSPLGKLELSGCEQGLHEIKLLGKGTSAADAVEVPAPAAVLGGPEPLMQCTAWLNAYFHQPEAIEEFPVPALHHPVFQQESFTRQVLWKLLKVVKFGEVISYQQLAALAGNPKAARAVGGAMRGNPVPILIPCHRVVCSSGAVGNMSGGLAVKEWLLAHEGHRLGKPGLGGSSGLAGAWLKGAGATSGSPPAGRN
In the case of B1, the “Reporter expression (%) mean, O^6BG” value is 60.0%; the “Reporter expression (%) mean, DMSO” value was found to be 47.7%; the “MGMT activity (a.u.) DMSO” value was 2.10 a.u; the “MGMT activity (% of WT) DMSO” value is 38.8 % of WT. The “Relative MGMT activity (%)” value was found to be 79.4%, the “MGMT activity (a.u.) O^6BG” value is recorded as 1.67 a.u, the “MGMT activity (% of WT) O^6BG” value is reported as 116.7 % of WT and the “Ratio percent reporter expression (O^6BG/DMSO)” value worked out at 1.26. Also, the “O^6BG resistance relative to WT (%)” value amounted to 200.6%.

B2: S159Y: MGMT polypeptide with mutation S159Y (protein)
chain: B1 chain with M158Y, S159Y
Turning to B2, the “Reporter expression (%) mean, O^6BG” value is listed as 142.7%; the “Reporter expression (%) mean, DMSO” value is 26.0%; the “MGMT activity (a.u.) DMSO” value is given as 3.85 a.u; the “MGMT activity (% of WT) DMSO” value is given as 71.2 % of WT. Besides, the “Relative MGMT activity (%)” value was 18.2%, the “MGMT activity (a.u.) O^6BG” value is on record as 0.70 a.u, the “MGMT activity (% of WT) O^6BG” value is listed as 49.1 % of WT and the “Ratio percent reporter expression (O^6BG/DMSO)” value is reported as 5.49. The “O^6BG resistance relative to WT (%)” value is reported as −31.0%.

B3: wild-type MGMT: reference MGMT polypeptide according to SEQ ID NO: 1 (GenBank NP_002403.3); used as control (protein)
chain: B1 chain with M158Y
modifications: REGION 1..207: note = Wild Type MGMT
notes: used as control
Turning to B3, the “Reporter expression (%) mean, O^6BG” value turned out to be 70.0%; the “Reporter expression (%) mean, DMSO” value turned out to be 18.5%; the “MGMT activity (a.u.) DMSO” value amounted to 5.41 a.u; the “MGMT activity (% of WT) DMSO” value was 100.0 % of WT. Further, the “Relative MGMT activity (%)” value was 26.4%, the “MGMT activity (a.u.) O^6BG” value is reported as 1.43 a.u, the “MGMT activity (% of WT) O^6BG” value is 100.0 % of WT and the “Ratio percent reporter expression (O^6BG/DMSO)” value is 3.78. Besides, the “O^6BG resistance relative to WT (%)” value is 0.0%.

B4: S159F: MGMT polypeptide with mutation S159F (protein)
chain: B1 chain with M158Y, S159F
In the case of B4, the “Reporter expression (%) mean, O^6BG” value is reported as 102.7%; the “Reporter expression (%) mean, DMSO” value is on record as 23.0%; the “MGMT activity (a.u.) DMSO” value worked out at 4.35 a.u; the “MGMT activity (% of WT) DMSO” value is recorded as 80.4 % of WT. Further, the “Relative MGMT activity (%)” value is recorded as 22.4%, the “MGMT activity (a.u.) O^6BG” value is 0.97 a.u, the “MGMT activity (% of WT) O^6BG” value was 68.2 % of WT and the “Ratio percent reporter expression (O^6BG/DMSO)” value turned out to be 4.46. The “O^6BG resistance relative to WT (%)” value is −15.2%.

B5: G160A: MGMT polypeptide with mutation G160A (protein)
chain: B1 chain with M158Y, G160A
With B5, the “Reporter expression (%) mean, O^6BG” value was determined as 74.5%; the “Reporter expression (%) mean, DMSO” value is listed as 15.5%; the “MGMT activity (a.u.) DMSO” value was 6.45 a.u; the “MGMT activity (% of WT) DMSO” value is 119.4 % of WT. In addition, the “Relative MGMT activity (%)” value came out at 20.8%, the “MGMT activity (a.u.) O^6BG” value is 1.34 a.u, the “MGMT activity (% of WT) O^6BG” value is 94.0 % of WT and the “Ratio percent reporter expression (O^6BG/DMSO)” value was 4.81. For the same molecule, the “O^6BG resistance relative to WT (%)” value is −21.3%.

B6: G160P: MGMT polypeptide with mutation G160P (protein)
chain: B1 chain with M158Y, G160P
As for B6, the “Reporter expression (%) mean, O^6BG” value was 47.5%; the “Reporter expression (%) mean, DMSO” value was determined as 22.8%; the “MGMT activity (a.u.) DMSO” value is listed as 4.40 a.u; the “MGMT activity (% of WT) DMSO” value is 81.3 % of WT. Further, the “Relative MGMT activity (%)” value came to 47.9%, the “MGMT activity (a.u.) O^6BG” value worked out at 2.11 a.u, the “MGMT activity (% of WT) O^6BG” value is reported as 147.4 % of WT and the “Ratio percent reporter expression (O^6BG/DMSO)” value is on record as 2.09. The “O^6BG resistance relative to WT (%)” value was found to be 81.2%.

B7: A170S: MGMT polypeptide with mutation A170S (protein)
chain: B1 chain with M158Y, A170S
As to B7, the “Reporter expression (%) mean, O^6BG” value is 85.0%; the “Reporter expression (%) mean, DMSO” value is given as 15.8%; the “MGMT activity (a.u.) DMSO” value was 6.35 a.u; the “MGMT activity (% of WT) DMSO” value was 117.5 % of WT. The “Relative MGMT activity (%)” value is reported as 18.5%, the “MGMT activity (a.u.) O^6BG” value is reported as 1.18 a.u, the “MGMT activity (% of WT) O^6BG” value is on record as 82.4 % of WT and the “Ratio percent reporter expression (O^6BG/DMSO)” value is on record as 5.40. For the same molecule, the “O^6BG resistance relative to WT (%)” value is −29.9%.

B8: S159W: MGMT polypeptide with mutation S159W (protein)
chain: B1 chain with M158Y, S159W
On to B8, for which the “Reporter expression (%) mean, O^6BG” value came to 108.0%; the “Reporter expression (%) mean, DMSO” value is 31.3%; the “MGMT activity (a.u.) DMSO” value worked out at 3.19 a.u; the “MGMT activity (% of WT) DMSO” value is on record as 59.0 % of WT. The “Relative MGMT activity (%)” value is on record as 29.0%, the “MGMT activity (a.u.) O^6BG” value amounted to 0.93 a.u, the “MGMT activity (% of WT) O^6BG” value is 64.8 % of WT and the “Ratio percent reporter expression (O^6BG/DMSO)” value is reported as 3.45. In addition, the “O^6BG resistance relative to WT (%)” value was 9.8%.

B9: S159I: MGMT polypeptide with mutation S159I (protein)
chain: B1 chain with M158Y, S159I
In the case of B9, the “Reporter expression (%) mean, O^6BG” value was found to be 40.3%; the “Reporter expression (%) mean, DMSO” value worked out at 18.0%; the “MGMT activity (a.u.) DMSO” value is reported as 5.56 a.u; the “MGMT activity (% of WT) DMSO” value is listed as 102.8 % of WT. Moreover, the “Relative MGMT activity (%)” value is given as 44.6%, the “MGMT activity (a.u.) O^6BG” value worked out at 2.48 a.u, the “MGMT activity (% of WT) O^6BG” value was 173.6 % of WT and the “Ratio percent reporter expression (O^6BG/DMSO)” value was found to be 2.24. Besides, the “O^6BG resistance relative to WT (%)” value is listed as 68.9%.

B10: Y158W: MGMT polypeptide with mutation Y158W (protein)
chain: B1 chain with M158W
As to B10, the “Reporter expression (%) mean, O^6BG” value was found to be 86.7%; the “Reporter expression (%) mean, DMSO” value was found to be 26.0%; the “MGMT activity (a.u.) DMSO” value was 3.85 a.u; the “MGMT activity (% of WT) DMSO” value is listed as 71.2 % of WT. The “Relative MGMT activity (%)” value is 30.0%, the “MGMT activity (a.u.) O^6BG” value is 1.15 a.u, the “MGMT activity (% of WT) O^6BG” value was 80.8 % of WT and the “Ratio percent reporter expression (O^6BG/DMSO)” value is 3.33. Further, the “O^6BG resistance relative to WT (%)” value came out at 13.5%.

B11: G160E: MGMT polypeptide with mutation G160E (protein)
chain: B1 chain with M158Y, G160E
For B11, the “Reporter expression (%) mean, O^6BG” value is reported as 63.3%; the “Reporter expression (%) mean, DMSO” value is 15.3%; the “MGMT activity (a.u.) DMSO” value is listed as 6.56 a.u; the “MGMT activity (% of WT) DMSO” value is recorded as 121.3 % of WT. The “Relative MGMT activity (%)” value was 24.1%, the “MGMT activity (a.u.) O^6BG” value stood at 1.58 a.u, the “MGMT activity (% of WT) O^6BG” value is 110.7 % of WT and the “Ratio percent reporter expression (O^6BG/DMSO)” value was 4.15. Besides, the “O^6BG resistance relative to WT (%)” value is on record as −8.8%.

B12: G160H: MGMT polypeptide with mutation G160H (protein)
chain: B1 chain with M158Y, G160H
Take B12: the “Reporter expression (%) mean, O^6BG” value is reported as 21.3%; the “Reporter expression (%) mean, DMSO” value is 10.3%; the “MGMT activity (a.u.) DMSO” value is given as 9.68 a.u; the “MGMT activity (% of WT) DMSO” value is recorded as 179.0 % of WT. Also, the “Relative MGMT activity (%)” value was determined as 48.4%, the “MGMT activity (a.u.) O^6BG” value is given as 4.69 a.u, the “MGMT activity (% of WT) O^6BG” value is 328.1 % of WT and the “Ratio percent reporter expression (O^6BG/DMSO)” value was found to be 2.06. The “O^6BG resistance relative to WT (%)” value turned out to be 83.3%.

B13: G160D: MGMT polypeptide with mutation G160D (protein)
chain: B1 chain with M158Y, G160D
Consider B13, for which the “Reporter expression (%) mean, O^6BG” value was found to be 72.8%; the “Reporter expression (%) mean, DMSO” value is 23.0%; the “MGMT activity (a.u.) DMSO” value is 4.35 a.u; the “MGMT activity (% of WT) DMSO” value is 80.4 % of WT. Further, the “Relative MGMT activity (%)” value amounted to 31.6%, the “MGMT activity (a.u.) O^6BG” value is 1.37 a.u, the “MGMT activity (% of WT) O^6BG” value is 96.2 % of WT and the “Ratio percent reporter expression (O^6BG/DMSO)” value amounted to 3.16. The “O^6BG resistance relative to WT (%)” value is 19.6%.
